# Data as given in article PMC9970974 (2023).
# B1: MafI2_(MGI-2B16B6) with a C-terminal 6xHis-tag (natural protein)
# chain: MYKIKCFYDQFSSGELFNYCQFLDNSSNQKINTRGTVYQYIIYVLTGDLYLQKDIDENLEFIHQAENNPNEVYSGGGQGFCWDISAEKVVFYHNEFDEEDGWPDLSCSLHTFKTALIAWNAFLQLPKSIHSVVETVIEE
# How the values were obtained:
# [1] = target: short version of the toxin domain (Ile323-the C-terminus) of MafB2_(MGI-2B16B6), no tag (N. meningitidis B16B6) (UniProt Q9JXD2); test: ITC; Nano ITC, 20 °C, 10 mM Tris-HCl pH 8.0, 100 mM NaCl, 2 mM β-ME; 50 injections of 1 μl NmMafI2 (~1.3 mM) into NmMafB2-CT2 (~0.2 mM); independent binding sites model
# [2] = target: T1, short version of the toxin domain (Ile323-the C-terminus) of MafB2_(MGI-2B16B6), no tag (N. meningitidis B16B6, UniProt Q9JXD2 323-483); test: ITC
# T1 chain: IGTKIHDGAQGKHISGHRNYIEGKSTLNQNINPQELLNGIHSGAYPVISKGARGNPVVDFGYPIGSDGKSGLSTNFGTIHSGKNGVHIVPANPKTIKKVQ
Molecule,Kd [1] [nM],stoichiometry N [1],Kd [2] [nM]
MafI2_(MGI-2B16B6) with a C-terminal 6xHis-tag (from UniProt A0A0G4BSP3 1-139) (natural protein),40,1,
B1,,,35.1
